From PMC4475061

T1: ULK3 fused to the VP16 activation domain, Q6PHR2
T1 chain: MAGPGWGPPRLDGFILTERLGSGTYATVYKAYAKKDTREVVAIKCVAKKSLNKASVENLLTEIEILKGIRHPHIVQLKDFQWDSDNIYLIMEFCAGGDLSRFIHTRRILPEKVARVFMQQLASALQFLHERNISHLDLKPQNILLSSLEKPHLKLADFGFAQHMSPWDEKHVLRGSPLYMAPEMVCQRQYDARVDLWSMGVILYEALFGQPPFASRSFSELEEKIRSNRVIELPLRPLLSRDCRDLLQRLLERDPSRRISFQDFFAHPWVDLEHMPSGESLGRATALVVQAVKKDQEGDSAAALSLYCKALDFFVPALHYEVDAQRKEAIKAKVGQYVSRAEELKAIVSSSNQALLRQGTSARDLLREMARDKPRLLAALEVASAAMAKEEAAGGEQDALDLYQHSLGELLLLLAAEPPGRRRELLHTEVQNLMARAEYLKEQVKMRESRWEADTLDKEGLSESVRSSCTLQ


Legend:
[1] = target: T1, ULK3 fused to the VP16 activation …; experiment: yeast two-hybrid (β-galactosidase activity); conditions: chain shown with the change;; parent: est. 0.66; read off a plot
other ESCRT-III proteins = experiment: fluorescence polarisation; data not shown; other ESCRT-III proteins

response [1]	Kd (other ESCRT-III proteins) [µM]	Binder
0.5	–	CHMP1B WT fused to the Gal4 DNA-binding domain, Q7LBR1 T178R; A181R; E184R (protein) MSNMEKHLFNLKFAAKELSRSAKKCDKEEKAEKAKIKKAIQKGNMEVARIHAENAIRQKNQAVNFLRMSARVDAVAARVQTAVTMGKVTKSMAGVVKSMDATLKTMNLEKISALMDKFEHQFETLDVQTQQMEDTMSSTTTLTTPQNQVDMLLQEMADEAGLDLNMELPQGQTGSVGRSVRSARQDELSQRLARLRDQV
–	100	ULK3(MIT)2 (residues 277–449) (domain or fragment) GPHMSGESLGRATALVVQAVKKDQEGDSAAALSLYCKALDFFVPALHYEVDAQRKEAIKAKVGQYVSRAEELKAIVSSSNQALLRQGTSARDLLREMARDKPRLLAALEVASAAMAKEEAAGGEQDALDLYQHSLGELLLLLAAEPPGRRRELLHTEVQNLMARAEYLKEQVKMRES
